Common to all, as to assay: cell-based or functional assay
Test [1] addresses Recombinant Human TL1A/TNFSF15 (R&D Systems, Cat N° 1319-TL) (human) (UniProt O95150).
Test [2] deals with DR3 receptor expressed in HeLa TRADD DR3 cells (Homo sapiens (Human)) (UniProt Q93038).
The target of test [3] is recombinant human TNF-α (Peprotech, Cat N° 300-01A) (human) (UniProt P01375).
Sequence of recombinant human TNF-α (Peprotech, Cat N° 300-01A) (human) (P01375 77-233 limits assumed): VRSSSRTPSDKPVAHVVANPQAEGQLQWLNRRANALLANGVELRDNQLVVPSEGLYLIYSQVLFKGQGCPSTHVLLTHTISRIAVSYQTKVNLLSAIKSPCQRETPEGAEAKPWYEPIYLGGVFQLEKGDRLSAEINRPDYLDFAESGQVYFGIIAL

Sequence of DR3 receptor expressed in HeLa TRADD DR3 cells (Homo sapiens (Human)) (Q93038 other isoform, or with tags, fused parts or gaps, form in doubt): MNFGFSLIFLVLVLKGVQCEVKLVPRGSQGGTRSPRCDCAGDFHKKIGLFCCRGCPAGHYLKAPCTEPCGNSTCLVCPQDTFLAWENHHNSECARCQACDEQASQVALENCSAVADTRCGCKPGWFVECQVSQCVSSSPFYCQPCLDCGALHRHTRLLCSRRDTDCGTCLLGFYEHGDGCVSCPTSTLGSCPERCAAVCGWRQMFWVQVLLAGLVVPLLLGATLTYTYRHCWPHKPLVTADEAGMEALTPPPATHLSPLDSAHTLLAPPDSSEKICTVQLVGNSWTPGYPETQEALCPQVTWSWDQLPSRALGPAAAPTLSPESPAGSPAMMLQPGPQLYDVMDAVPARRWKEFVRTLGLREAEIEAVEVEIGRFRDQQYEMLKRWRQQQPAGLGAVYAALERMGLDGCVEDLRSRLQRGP
Sequence of Recombinant Human TL1A/TNFSF15 (R&D Systems, Cat N° 1319-TL) (human) (O95150 72-251 limits assumed): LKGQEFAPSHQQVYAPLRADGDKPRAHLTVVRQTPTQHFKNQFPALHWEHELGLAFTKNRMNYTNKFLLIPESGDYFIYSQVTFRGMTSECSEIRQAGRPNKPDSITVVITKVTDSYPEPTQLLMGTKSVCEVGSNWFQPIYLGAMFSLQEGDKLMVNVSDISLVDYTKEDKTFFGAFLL

Regarding “Recombinant Human DcR3/TNFRSF6B/Fc Chimera, CF (R&D Systems, Cat N° 142-DC) (from UniProt O95407 30-300) (Fc fusion)”, the IC50 of inhibition of TL1A-induced TRADD-EYFP relocalisation in HeLa TRADD DR3 cells (300 ng/ml TL1A, FIG. 17) in test [1] was found to be 1.41 µg/mL.

Regarding “Recombinant Human TL1A/TNFSF15 (R&D Systems, Cat N° 1319-TL) (from UniProt O95150 72-251) (ligand)”, the EC50 of TL1A-induced relocalisation of TRADD-EYFP in HeLa TRADD DR3 cells (FIG. 17) in test [2] worked out at 0.0043 µg/mL.

For “etanercept (Enbrel®, from Amgen, Inc.) (Fc fusion)”, in test [3], the IC50 of inhibition of TNF-induced TRADD-EYFP relocalisation in HeLa TRADD DR3 cells (100 ng/ml TNF, FIG. 19) amounted to 0.0538 µg/mL and the IC50 of inhibition of TNF-induced relocalisation of TRADD-EYFP (TNF dose 300 ng/ml, FIG. 9) was found to be 2740 nM.

(Values after US20110319287A1, “MODULATOR ASSAY” (ADDEX PHARMA S.A., priority 2009, published 2011).)
